Experimental data: patent US20190060324A1, “POLYNUCLEOTIDE-POLY(DIOL) CONJUGATES, PROCESS OF PREPARATION AND USES THEREOF” (THE ROYAL INSTITUTION FOR THE ADVANCEMENT OF …, priority 2014, published 2019)

Assays:
[1] = system: HeLa cells (human cervical cancer); test: MTS cytotoxicity assay; type: cell-based; conditions: quadruplicate, read-out: inhibitory concentration (IC50), MTS assay
Experimental: The cytotoxicity of micelles was assessed using the CellTiter96 kit from Promega according to the manufacturer's instructions. Briefly, HeLa cells (human cervical cancer) were seeded at a density of 10000 cells per well in a 96-well plate in DMEM media (Invitrogen) supplemented with 10% FBS and AB/AM. […] Cells were incubated for 24, 48, and 72 h in 5% CO2 at 37° C. After the incubation period, the MTS reagent was added to each well and further incubated for 2 h in 5% CO2 at 37° C. Subsequently, 96-well plates were allowed to equilibrate at room temperature and the absorbance was read at 490 nm using a BioTek Epoch micro-plate reader. All quantifications were done using GraphPad Prism 5 software.

[2] = system: primary B-CLL lymphocytes; test: Cleaved caspase-3 apoptosis assay; type: cell-based, human; conditions: primary patient CLL cells, 24 and 48 h
Experimental: Primary B-CLL lymphocytes were maintained in RPMI complemented with 10% fetal bovine serum (FBS). BMS2 stromal cell line were maintained in Dulbecco's modified eagle medium (DMEM) supplemented with 10% FBS.BMS2 cells were plate at 70×10^4 cells/ml in 24 well plates before coculture with primary B-CLL lymphocytes and incubate at 37° C., 5% C02.
For apoptosis assays, 3×10^6 B-CLL lymphocytes were plated in the presence or absence of stromal cell (BMS2) and incubate 1 h at 37° C., 5% CO2. Cells were then treated with vehicle, micelle, BKM120, and micelle encapsulated BKM120 for 24 and 48 h.
Cells were harvested, washed with PBS then fixed 10 min with 1% paraformaldehyde. After washing, cells were permeabilized and nonspecific sites blocked in PBS containing 3% FBS and 0.01% triton X100. Cells were then incubated 1 h with an anti-caspase-3 FITC conjugated antibody then analyzed with a FACSCalibur flow cytometer. (See FIG. 16).

[3] = Dynamic light scattering of DNA-conjugate micelles (hydrodynamic radius, self-assembly); type: physicochemical; conditions: 25° C.; for self-assembly / scattering by DLS: 10 μM in magnesium containing (TAMg) buffer; for Single-stranded Rh (hydrodynamic radius by DLS): 10 μM in TAMg buffer; for Single-stranded Rh (hydrodynamic radius by DLS) / Double-stranded Rh (hydrodynamic radius by DLS): mean of at least triplicate ± SD
Experimental: The conjugates described herein can be further characterized with regard to their self-assembly behavior. To probe the self-assembly in solution, dynamic light scattering (DLS) was used to determine the presence, and hydrodynamic radius, of micellar aggregates.
Dynamic Light Scattering (DLS) experiments were carried out using a DynaPro™ Instrument from Wyatt Technology. A cumulants fit model was used to confirm the presence and determine the size of a monomodal population of micellar aggregates. Sterile water and TAMg buffer were filtered using a 0.45 μm nylon syringe filter before use for DLS sample preparation. All measurements were carried out at 25° C.
This size correlates with DNA-based spherical micelles and is consistent with the tight packing of the HE chains in a hydrophobic core with a charged corona made up of DNA.
To investigate the effect of block pattern on the amphiphilic self-assembly in solution, DLS measurements were carried out for the HE/HEG series. Samples were annealed in TAMg buffer at 10 μM, and measured at 25° C. […] Furthermore, the effect of the positioning of the blocks with respect to the oligonucleotide portion also appears to be a major factor in the self-assembly: the terminal HE6 results in micellization, whereas a central HE6 block prevents aggregation.

[4] = Fluorescence of encapsulated Nile Red; type: physicochemical; conditions: conjugate 10 μM in TAMg, excitation 535 nm
Experimental: DNA-conjugates (10 μM) in TAMg buffer (60 μL) were thermally annealed (95 to 4° C., 4 hours). The samples were transferred to glass vials and 1.5 μL of Nile Red solution ([…], acetone) was added, to give a final Nile Red concentration of 2.5 μM. The samples were vortexed briefly, sealed and incubated overnight at room temperature in the absence of light. Fluorescence spectra were recorded at room temperature in a 50 μL quartz cuvette using an excitation wavelength of 535 nm, and monitoring emission between 560 and 750 nm, with excitation and emission slit widths both set at 10 nm.
The sequence-specific self-assembly was also assessed using encapsulation of Nile Red (FIG. 5). In this case a small increase in fluorescence was seen as the block size increased from one to three HE units, consistent with a degree of intramolecular collapse of adjacent HE units, generating progressively larger hydrophobic domains as the block size increases, akin to beads on a string. […] A small, but repeatedly measurable, […] of the maximum emission from the bola-amphiphile (640 nm) with respect to the linear amphiphile (645 nm) was also observed, which is indicative of Nile Red in a more polar environment P. Greenspan, S. D. Fowler, J. Lipid Res. 1985, 26, 781-789). […]

[5] = system: complement strand (Acomp); test: Thermal denaturation of duplexes with complement strand by UV absorption; native PAGE; type: physicochemical; conditions: between DNA and HE12-DNA, duplex with Acomp 2.5 μM in TAMg
Experimental: The hybridization of the DNA amphiphiles to their complement strands was confirmed by measurement of the thermal denaturation of the duplexes by UV absorption. For each experiment equimolar amounts of DNA amphiphile and complement strand (Acomp, see Table 1) were combined in TAMg buffer to give a final volume of 150 μL with a duplex concentration of 2.5 μM. Samples were thermally annealed (95 to 4° C., 4 hours) before transfer to a quartz cuvette. Absorbance at 260 nm was monitored over the appropriate temperature range. Typical sigmoidal melting curves were obtained for the hybridization of the complementary strand Acomp to DNA control, discrete (HE-HEG)6-DNA and HE12-DNA micelles. […] Native Polyacrylamide Gel Electrophoresis (PAGE) was carried out at room temperature for 2 hours at a constant voltage of 250V. Sample loading was 0.01 OD260 DNA per lane. Single-stranded samples were annealed (95 to 4° C., 4 hours) prior to loading on the gel to promote uniform assembly. Double-stranded samples were similarly annealed (with Acomp, see Table 1) to provide 25 μL of 10 μM duplex in 1×TAMg. The DNA bands were visualized by incubation with GelRedTM. Thermal denaturation and gel electrophoresis concluded that all of the HEx-DNA molecules retained their ability to hybridize to a complementary DNA strand, highlighting the orthogonal nature of these differing modes of intermolecular self-assembly. […]

[6] = BKM120 loading of HE12-DNA micelles by RP-HPLC and UV-Vis; type: physicochemical; conditions: HPLC peak areas, standard curves
Experimental: BKM120 was prepared as a 10 mM working solution in chloroform. Loading of the structures was achieved by adding 20 μL of BKM120 to a glass vial, followed by solvent evaporation in open air to achieve a thin drug film. HE12-DNA micelles were pre-assembled in 1×TAMg (100 μL at […]) and subsequently added to the drug film. The final solution was 100 μL with excess BKM120 (2 mM). The mixture was vortexed heavily to allow re-suspension of the drug molecules, and was incubated overnight at room temperature. Alternatively, drug loading could also be obtained by a different method. […]
RP-HPLC and UV-Vis spectroscopy were used to determine the amount of BKM120 loaded in the DNA micelles, For HPLC, 60 μL of the purified supernatant was injected into a Hamilton PRP-1 5 μm 100 Å 2.1×150 mm column. […] The products were also detected using a drug-only channel at 320 nm (BKM 120 maximum absorption peak).
For UV-Vis spectroscopy experiments, 20 μL of the purified supernatant was mixed with 80 μL of DMSO, and the absorbance (200 nm-500 nm) was measured. The presence of BKM120 was monitored by the absorbance at 320 nm using a Biotek Synergy HT well-plate spectrometer. […]
The amount of incorporated BKM 120 was calculated by measuring HPLC peak areas of BKM 120 and DNA. […]

| Compound | self-assembly / scattering by DLS [3] | Single-stranded Rh (hydrodynamic radius by DLS) [3] | Double-stranded Rh (hydrodynamic radius by DLS) [3] | further results |
| --- | --- | --- | --- | --- |
| Nc1cc(C(F)(F)F)c(-c2cc(N3CCOCC3)nc(N3CCOCC3)n2)cn1 [BKM120] |  |  |  | IC50 [1]: 2000 nM; amount of caspase (cleaved caspase-3) [2]: same amount |
| (HE2-HEG2)3-DNA: DDHHDDHHDDHHTTTTTCAGTTGACCATATA; D dodecane-diol, H hexaethyloxy glycol residues (dodecane-diol and hexaethylene glycol units conjugated, chemistry not fully specified) | did not exhibit self-assembly |  |  |  |
| (HE3-HEG3)2-DNA: DDDHHHDDDHHHTTTTTCAGTTGACCATATA; D dodecane-diol, H hexaethyloxy glycol residues (dodecane-diol and hexaethylene glycol units conjugated, chemistry not fully specified) | did not exhibit self-assembly |  |  |  |
| (HE-HEG)6-DNA: DHDHDHDHDHDHTTTTTCAGTTGACCATATA; D dodecane-diol, H hexaethyloxy glycol residues (dodecane-diol and hexaethylene glycol units conjugated, chemistry not fully specified) | did not exhibit self-assembly |  |  |  |
| HE6-DNA: DDDDDDTTTTTCAGTTGACCATATA; D = residue from DMT-dodecane-diol amidite (dodecane-diol (HE) units conjugated, chemistry not fully specified) | strong scattering | 6.5±0.4 nm | 5.6 ± 0.1 nm | Single-stranded Rh (hydrodynamic radius by DLS) ([3]; listed as HE6): 6.5 ± 0.4 nm |
| HE6-HEG6-DNA: DDDDDDHHHHHHTTTTTCAGTTGACCATATA; D dodecane-diol, H hexaethyloxy glycol residues (dodecane-diol and hexaethylene glycol units conjugated, chemistry not fully specified) | strong scattering | 9.7±0.9 nm | 10.0 ± 0.2 nm | Single-stranded Rh (hydrodynamic radius by DLS) ([3]; listed as HE6-HEG6): 9.7 ± 0.1 nm; maximum emission of encapsulated Nile Red [4]: 645 nm |
| HE12-DNA: DDDDDDDDDDDDTTTTTCAGTTGACCATATA; D = residue from DMT-dodecane-diol amidite (dodecane-diol (HE) units conjugated, chemistry not fully specified) |  | 11.3±0.1 nm | 11.3 ± 0.1 nm | Single-stranded Rh (hydrodynamic radius by DLS) ([3]; listed as HE12): 11.3 ± 0.7 nm; change in melting temperature [5]: 3 °C; BKM120 molecules incorporated per HE12-DNA conjugate unit [6]: 8 |
| HEG6-HE6-DNA: HHHHHHDDDDDDTTTTTCAGTTGACCATATA; D dodecane-diol, H hexaethyloxy glycol residues (dodecane-diol and hexaethylene glycol units conjugated, chemistry not fully specified) |  |  |  | maximum emission of encapsulated Nile Red [4]: 640 nm |
